B1: Tuftelin-interacting protein 11 (Homo sapiens), Q9UBB9 (parent)
chain: MSLSHLYRDGEGRIDDDDDERENFEITDWDLQNEFNPNRQRHWQTKEEATYGVWAERDSDDERPSFGGKRARDYSAPVNFISAGLKKGAAEEAELEDSDDEEKPVKQDDFPKDFGPRKLKTGGNFKPSQKGFAGGTKSFMDFGSWERHTKGIGQKLLQKMGYVPGRGLGKNAQGIINPIEAKQRKGKGAVGAYGSERTTQSMQDFPVVDSEEEAEEEFQKELSQWRKDPSGSKKKPKYSYKTVEELKAKGRISKKLTAPQKELSQVKVIDMTGREQKVYYSYSQISHKHNVPDDGLPLQSQQLPQSGKEAKAPGFALPELEHNLQLLIDLTEQEIIQNDRQLQYERDMVVNLFHELEKMTEVLDHEERVISNLSKVLEMVEECERRMQPDCSNPLTLDECARIFETLQDKYYEEYRMSDRVDLAVAIVYPLMKEYFKEWDPLKDCTYGTEIISKWKSLLENDQLLSHGGQDLSADAFHRLIWEVWMPFVRNIVTQWQPRNCDPMVDFLDSWVHIIPVWILDNILDQLIFPKLQKEVENWNPLTDTVPIHSWIHPWLPLMQARLEPLYSPIRSKLSSALQKWHPSDSSAKLILQPWKDVFTPGSWEAFMVKNIVPKLGMCLGELVINPHQQHMDAFYWVIDWEGMISVSSLVGLLEKHFFPKWLQVLCSWLSNSPNYEEITKWYLGWKSMFSDQVLAHPSVKDKFNEALDIMNRAVSSNVGAYMQPGARENIAYLTHTERRKDFQYEAMQERREAENMAQRGIGVAASSVPMNFKDLIETKAEEHNIVFMPVIGKRHEGKQLYTFGRIVIYIDRGVVFVQGEKTWVPTSLQSLIDMAK
partner: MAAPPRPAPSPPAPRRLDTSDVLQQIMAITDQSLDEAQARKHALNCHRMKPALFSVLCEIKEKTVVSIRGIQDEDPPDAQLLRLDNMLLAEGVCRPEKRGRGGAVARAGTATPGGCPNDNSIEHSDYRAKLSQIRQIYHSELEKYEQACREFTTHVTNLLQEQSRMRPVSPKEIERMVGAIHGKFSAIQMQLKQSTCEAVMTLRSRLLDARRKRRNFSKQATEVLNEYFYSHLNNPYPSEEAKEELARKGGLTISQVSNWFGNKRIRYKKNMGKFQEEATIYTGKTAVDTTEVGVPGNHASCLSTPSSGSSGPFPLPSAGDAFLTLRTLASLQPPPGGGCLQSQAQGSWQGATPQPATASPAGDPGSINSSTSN
B2: Growth arrest and DNA damage-inducible protein GADD45 gamma (Homo sapiens), O95257 (parent)
chain: MTLEEVRGQDTVPESTARMQGAGKALHELLLSAQRQGCLTAGVYESAKVLNVDPDNVTFCVLAAGEEDEGDIALQIHFTLIQAFCCENDIDIVRVGDVQRLAAIVGAGEEAGAPGDLHCILISNPNEDAWKDPALEKLSLFCEESRSVNDWVPSITLPE
partner: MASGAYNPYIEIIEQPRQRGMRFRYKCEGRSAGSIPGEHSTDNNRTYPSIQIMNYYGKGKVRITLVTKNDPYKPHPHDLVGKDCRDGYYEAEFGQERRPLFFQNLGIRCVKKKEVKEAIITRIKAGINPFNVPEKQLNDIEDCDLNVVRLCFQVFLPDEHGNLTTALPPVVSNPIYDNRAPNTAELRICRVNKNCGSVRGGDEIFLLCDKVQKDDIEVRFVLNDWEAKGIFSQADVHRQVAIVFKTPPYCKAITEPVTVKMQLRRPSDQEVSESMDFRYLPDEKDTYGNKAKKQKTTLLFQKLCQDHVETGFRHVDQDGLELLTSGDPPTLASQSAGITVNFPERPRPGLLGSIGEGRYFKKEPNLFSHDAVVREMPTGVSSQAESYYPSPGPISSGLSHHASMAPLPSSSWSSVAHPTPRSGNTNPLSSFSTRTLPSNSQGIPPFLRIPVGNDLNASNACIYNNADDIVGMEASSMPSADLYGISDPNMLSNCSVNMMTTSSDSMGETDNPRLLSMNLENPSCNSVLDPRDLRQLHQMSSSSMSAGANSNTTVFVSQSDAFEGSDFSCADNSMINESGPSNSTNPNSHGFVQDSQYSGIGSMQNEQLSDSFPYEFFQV
B3: Syntenin-2 (Homo sapiens), Q9H190 (parent)
chain: MSSLYPSLEDLKVDQAIQAQVRASPKMPALPVQATAISPPPVLYPNLAELENYMGLSLSSQEVQESLLQIPEGDSTAVSGPGPGQMVAPVTGYSLGVRRAEIKPGVREIHLCKDERGKTGLRLRKVDQGLFVQLVQANTPASLVGLRFGDQLLQIDGRDCAGWSSHKAHQVVKKASGDKIVVVVRDRPFQRTVTMHKDSMGHVGFVIKKGKIVSLVKGSSAARNGLLTNHYVCEVDGQNVIGLKDKKIMEILATAGNVVTLTIIPSVIYEHMVKKLPPVLLHHTMDHSIPDA
partner: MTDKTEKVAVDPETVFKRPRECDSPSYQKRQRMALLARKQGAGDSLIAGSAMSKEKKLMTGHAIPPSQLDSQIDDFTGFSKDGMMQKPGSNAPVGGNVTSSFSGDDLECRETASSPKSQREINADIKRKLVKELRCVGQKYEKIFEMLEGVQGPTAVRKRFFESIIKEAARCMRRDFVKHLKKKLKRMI
B4: Cyclin-D1-binding protein 1 (Homo sapiens), O95273 (parent)
chain: MASATAPAAAVPTLASPLEQLRHLAEELRLLLPRVRVGEAQETTEEFNREMFWRRLNEAAVTVSREATTLTIVFSQLPLPSPQETQKFCEQVHAAIKAFIAVYYLLPKDQGITLRKLVRGATLDIVDGMAQLMEVLSVTPTQSPENNDLISYNSVWVACQQMPQIPRDNKAAALLMLTKNVDFVKDAHEEMEQAVEECDPYSGLLNDTEENNSDNHNHEDDVLGFPSNQDLYWSEDDQELIIPCLALVRASKACLKKIRMLVAENGKKDQVAQLDDIVDISDEISPSVDDLALSIYPPMCHLTVRINSAKLVSVLKKALEITKASHVTPQPEDSWIPLLINAIDHCMNRIKELTQSELEL
partner: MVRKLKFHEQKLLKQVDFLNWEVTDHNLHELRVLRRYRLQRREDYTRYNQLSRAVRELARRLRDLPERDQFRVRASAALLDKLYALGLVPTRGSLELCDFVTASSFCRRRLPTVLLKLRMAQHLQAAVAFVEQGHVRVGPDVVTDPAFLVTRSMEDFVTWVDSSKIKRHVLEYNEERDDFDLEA
B5: Neutrophil cytosol factor 2 (Homo sapiens), P19878 (parent)
chain: MSLVEAISLWNEGVLAADKKDWKGALDAFSAVQDPHSRICFNIGCMYTILKNMTEAEKAFTRSINRDKHLAVAYFQRGMLYYQTEKYDLAIKDLKEALIQLRGNQLIDYKILGLQFKLFACEVLYNIAFMYAKKEEWKKAEEQLALATSMKSEPRHSKIDKAMECVWKQKLYEPVVIPVGKLFRPNERQVAQLAKKDYLGKATVVASVVDQDSFSGFAPLQPQAAEPPPRPKTPEIFRALEGEAHRVLFGFVPETKEELQVMPGNIVFVLKKGNDNWATVMFNGQKGLVPCNYLEPVELRIHPQQQPQEESSPQSDIPAPPSSKAPGRPQLSPGQKQKEEPKEVKLSVPMPYTLKVHYKYTVVMKTQPGLPYSQVRDMVSKKLELRLEHTKLSYRPRDSNELVPLSEDSMKDAWGQVKNYCLTLWCENTVGDQGFPDEPKESEKADANNQTTEPQLKKGSQVEALFSYEATQPEDLEFQEGDIILVLSKVNEEWLEGECKGKVGIFPKVFVEDCATTDLESTRREV
B6: Four and a half LIM domains protein 3 (Homo sapiens), Q13643 (parent)
chain: MSESFDCAKCNESLYGRKYIQTDSGPYCVPCYDNTFANTCAECQQLIGHDSRELFYEDRHFHEGCFRCCRCQRSLADEPFTCQDSELLCNDCYCSAFSSQCSACGETVMPGSRKLEYGGQTWHEHCFLCSGCEQPLGSRSFVPDKGAHYCVPCYENKFAPRCARCSKTLTQGGVTYRDQPWHRECLVCTGCQTPLAGQQFTSRDEDPYCVACFGELFAPKCSSCKRPIVGLGGGKYVSFEDRHWHHNCFSCARCSTSLVGQGFVPDGDQVLCQGCSQAGP
partner: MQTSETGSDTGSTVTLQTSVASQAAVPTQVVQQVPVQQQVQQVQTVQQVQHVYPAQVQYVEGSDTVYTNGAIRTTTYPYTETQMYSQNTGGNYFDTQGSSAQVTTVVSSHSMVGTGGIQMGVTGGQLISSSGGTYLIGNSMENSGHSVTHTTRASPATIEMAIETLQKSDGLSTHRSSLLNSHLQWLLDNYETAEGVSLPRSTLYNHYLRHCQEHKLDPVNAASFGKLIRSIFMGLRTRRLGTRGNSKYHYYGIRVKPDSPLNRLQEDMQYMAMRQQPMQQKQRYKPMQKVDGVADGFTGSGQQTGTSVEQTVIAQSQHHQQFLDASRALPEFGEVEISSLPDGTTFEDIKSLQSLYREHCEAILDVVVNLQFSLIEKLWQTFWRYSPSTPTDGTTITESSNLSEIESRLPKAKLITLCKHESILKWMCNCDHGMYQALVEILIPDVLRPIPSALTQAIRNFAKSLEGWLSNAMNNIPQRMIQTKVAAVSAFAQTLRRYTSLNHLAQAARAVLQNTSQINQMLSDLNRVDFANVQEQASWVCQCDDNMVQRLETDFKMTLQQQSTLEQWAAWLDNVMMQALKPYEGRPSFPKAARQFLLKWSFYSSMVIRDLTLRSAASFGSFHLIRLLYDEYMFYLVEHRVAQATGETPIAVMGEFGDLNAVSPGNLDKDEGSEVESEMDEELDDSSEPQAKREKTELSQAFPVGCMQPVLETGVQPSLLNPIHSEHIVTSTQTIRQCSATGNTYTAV
B7: Medium-chain acyl-CoA ligase ACSF2, mitochondrial (Homo sapiens), Q96CM8 (parent)
chain: MAVYVGMLRLGRLCAGSSGVLGARAALSRSWQEARLQGVRFLSSREVDRMVSTPIGGLSYVQGCTKKHLNSKTVGQCLETTAQRVPEREALVVLHEDVRLTFAQLKEEVDKAASGLLSIGLCKGDRLGMWGPNSYAWVLMQLATAQAGIILVSVNPAYQAMELEYVLKKVGCKALVFPKQFKTQQYYNVLKQICPEVENAQPGALKSQRLPDLTTVISVDAPLPGTLLLDEVVAAGSTRQHLDQLQYNQQFLSCHDPINIQFTSGTTGSPKGATLSHYNIVNNSNILGERLKLHEKTPEQLRMILPNPLYHCLGSVAGTMMCLMYGATLILASPIFNGKKALEAISRERGTFLYGTPTMFVDILNQPDFSSYDISTMCGGVIAGSPAPPELIRAIINKINMKDLVVAYGTTENSPVTFAHFPEDTVEQKAESVGRIMPHTEARIMNMEAGTLAKLNTPGELCIRGYCVMLGYWGEPQKTEEAVDQDKWYWTGDVATMNEQGFCKIVGRSKDMIIRGGENIYPAELEDFFHTHPKVQEVQVVGVKDDRMGEEICACIRLKDGEETTVEEIKAFCKGKISHFKIPKYIVFVTNYPLTISGKIQKFKLREQMERHLNL
partner: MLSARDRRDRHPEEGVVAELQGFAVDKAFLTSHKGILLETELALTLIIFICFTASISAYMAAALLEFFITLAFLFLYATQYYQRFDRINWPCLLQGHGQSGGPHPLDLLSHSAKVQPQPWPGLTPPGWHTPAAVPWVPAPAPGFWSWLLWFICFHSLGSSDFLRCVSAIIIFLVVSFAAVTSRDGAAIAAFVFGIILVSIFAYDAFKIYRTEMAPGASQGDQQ
B8: Armadillo repeat-containing protein 1 (Homo sapiens), Q9NVT9 (parent)
chain: MNSSTSTMSEEPDALSVVNQLRDLAADPLNRRAIVQDQGCLPGLILFMDHPNPPVVHSALLALRYLAECRANREKMKGELGMMLSLQNVIQKTTTPGETKLLASEIYDILQSSNMADGDSFNEMNSRRRKAQFFLGTTNKRAKTVVLHIDGLDDTSRRNLCEEALLKIKGVISFTFQMAVQRCVVRIRSDLKAEALASAIASTKVMKAQQVVKSESGEEMLVPFQDTPVEVEQNTELPDYLPEDESPTKEQDKAVSRVGSHPEGGASWLSTAANFLSRSFYW

Variants of: B1
Details: with pbx4_human PBX4, Q9BYU1
With S688L the “effect of a mutation on the interaction” value was “with no effect”.

Variants of: B2
Details: with rel_human REL
For G112S, the “effect of a mutation on the interaction” value was “with no effect”.

Variants of: B3
Details: with ct457_human CT45A7, P0DMV0
For G225R, the “effect of a mutation on the interaction” value was “disrupting interaction strength”. For V182M, the “effect of a mutation on the interaction” value was “disrupting interaction strength”. G242R was tested, and the “effect of a mutation on the interaction” value was “disrupting interaction strength”.

Variants of: B4
Details: with imp3_human IMP3, Q9NV31
In the case of I277T, the “effect of a mutation on the interaction” value is reported as “disrupting interaction strength”.

Variants of: B5
Details: with kifa3_human KIFAP3, Q92845
kifa3_human KIFAP3, Q92845, sequence (Q92845 whole entry): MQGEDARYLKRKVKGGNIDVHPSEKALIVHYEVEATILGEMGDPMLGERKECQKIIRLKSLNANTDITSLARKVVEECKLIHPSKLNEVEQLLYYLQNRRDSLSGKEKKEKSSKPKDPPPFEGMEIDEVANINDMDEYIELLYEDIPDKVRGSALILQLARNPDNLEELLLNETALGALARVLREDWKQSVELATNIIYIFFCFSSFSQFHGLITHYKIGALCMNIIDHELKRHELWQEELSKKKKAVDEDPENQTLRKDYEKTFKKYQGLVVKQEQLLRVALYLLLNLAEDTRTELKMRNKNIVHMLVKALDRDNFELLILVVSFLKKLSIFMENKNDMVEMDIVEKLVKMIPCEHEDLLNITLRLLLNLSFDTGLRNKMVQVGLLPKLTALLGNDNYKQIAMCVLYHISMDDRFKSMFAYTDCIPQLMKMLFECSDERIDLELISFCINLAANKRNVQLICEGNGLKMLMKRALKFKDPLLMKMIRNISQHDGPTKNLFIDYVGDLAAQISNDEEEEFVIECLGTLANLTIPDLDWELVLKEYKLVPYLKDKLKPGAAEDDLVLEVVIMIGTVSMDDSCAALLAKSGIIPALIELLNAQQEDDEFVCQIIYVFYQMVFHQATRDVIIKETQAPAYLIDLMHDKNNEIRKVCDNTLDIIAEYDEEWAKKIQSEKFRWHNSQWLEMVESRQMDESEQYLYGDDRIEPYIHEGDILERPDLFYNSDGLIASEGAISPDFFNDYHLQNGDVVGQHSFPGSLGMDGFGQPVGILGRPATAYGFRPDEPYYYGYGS
V297A was tested, and the “effect of a mutation on the interaction” value was “with no effect”.

Variants of: B6
Details: with rfx3_human RFX3, P48380
With R226H the “effect of a mutation on the interaction” value was “with no effect”.

Variants of: B7
Details: with cklf5_human CMTM5, Q96DZ9
With A34V the “effect of a mutation on the interaction” value was “disrupting interaction strength”. With G19W the “effect of a mutation on the interaction” value was “disrupting interaction strength”.

Variants of: B8
Details: with mfr1l_human MTFR1L
In the case of M83T, the “effect of a mutation on the interaction” value is reported as “with no effect”.
